# Reference: PMC7442622, “A functionally neutral single chain antibody to measure beta‐1 integrin uptake and recycling” (Traffic (Copenhagen, Denmark), 2020)
# B1: MBP‐scFv^K20 (scFv, V domains shown)
# VH: QVQLQESGTELVRPGASVKLSCKASGYTFTDYYISWVKQRPGQGLEWIARIYPGSGNTFYNEKFKGKATLTAETSSNTAYMQLSSLTSEDSAVYFCAIYYGSGDYWGQGTTVTVSS
# VL: DIQLTQSPSSLSASLGGKVTITCKASQDINKYIAWYQHEPGKGPRLLIRYTSKLESGIPSRFSGSGSGRDYSFSISNLEPEDIATYYCLQYYNLWTFGGGTKLEIK
# notes: VH of mouse mAb K20; flexible linker, 3x repeat of GGGGS; VL of mouse mAb K20; 71 kDa fusion; a TEV site lies between MBP and the scFv; monovalent; also called MBP‐fused scFv^K20; anti‐β1 integrin scFv^K20; source: High Five insect cells, baculovirus, secreted; purified (IMAC, SEC peak 2); also as culture media containing secreted scFv^K20; not shown: His6, N-terminal, kept; MBP, N-terminal, …
# B2: mouse monoclonal anti‐β1 integrin antibody mAb K20 (antibody, V domains shown)
# VH: B1 VH
# VL: B1 VL
# notes: VH of mAb K20; constant region of the heavy chain of a mouse IgG; VL of mAb K20; constant region of the light chain of a mouse antibody; Bivalent IgG; also called mAb K20 IgG; parent mAb K20; source: bought: Beckman Coulter; copies: 2 + 2
# Biological target: T1, β1 integrin (Homo sapiens, UniProt P05556)
# T1 construct: β1 integrin (integrin beta-1), endogenous on the surface of H1975 and hTERT-RPE1 cells; On cells β1 integrin stands in αβ heterodimers; also called beta‐1 integrin; endogenous β1 integrin; source: endogenous, on H1975 cells; endogenous, on hTERT‐RPE1 cells
# T1 sequence (P05556 21-798): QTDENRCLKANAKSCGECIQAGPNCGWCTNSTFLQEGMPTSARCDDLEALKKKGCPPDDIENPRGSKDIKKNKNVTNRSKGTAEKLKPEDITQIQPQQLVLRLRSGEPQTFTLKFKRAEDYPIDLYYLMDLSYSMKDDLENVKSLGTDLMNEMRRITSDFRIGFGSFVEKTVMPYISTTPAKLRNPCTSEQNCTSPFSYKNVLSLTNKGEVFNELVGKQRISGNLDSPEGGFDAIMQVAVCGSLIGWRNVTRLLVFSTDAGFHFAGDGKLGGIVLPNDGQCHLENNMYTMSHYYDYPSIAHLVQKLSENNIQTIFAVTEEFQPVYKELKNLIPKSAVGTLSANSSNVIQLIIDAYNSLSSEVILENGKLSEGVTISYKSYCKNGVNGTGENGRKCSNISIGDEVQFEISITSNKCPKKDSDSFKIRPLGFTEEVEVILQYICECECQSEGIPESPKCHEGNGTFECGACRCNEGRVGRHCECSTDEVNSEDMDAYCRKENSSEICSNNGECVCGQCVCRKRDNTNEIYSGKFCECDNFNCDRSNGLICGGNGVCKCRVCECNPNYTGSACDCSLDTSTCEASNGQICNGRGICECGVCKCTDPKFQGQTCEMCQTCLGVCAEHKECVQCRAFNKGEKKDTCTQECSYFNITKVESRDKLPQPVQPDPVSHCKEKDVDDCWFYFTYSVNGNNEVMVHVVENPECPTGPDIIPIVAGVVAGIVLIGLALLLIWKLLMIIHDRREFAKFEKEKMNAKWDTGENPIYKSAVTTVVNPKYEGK
# Assay: ELISA; cell-based ELISA binding isotherm on H1975 cells seeded on gelatin- and fibronectin-coated 96-well plates; antibody dilutions in PBS4+ (1 mM MgCl2, 1 mM CaCl2, 5 mM glucose, 1% BSA), 30 minutes at 4°C; KD as the concentration at half-maximal binding; n = 4
# Conditions: one partner purified
row,Binder,Kd
1,B1,6.54 ± 1.34 nM
2,B2,1.2 ± 0.14 nM
